According to the supplement of paper PMC11246515:
± gives the standard deviation of the averaged measurements.

Experiment: total protein half-life in vivo (active degradation + dilution); higher = more stable protein
[1] = E. coli NCM3722 delta-smpB, growth: N-lim chemostat, doubling time 6 h
[2] = E. coli NCM3722 delta-clpP delta-lon delta-hslV, growth: N-lim chemostat, doubling time 6 h
[3] = E. coli NCM3722 delta-clpP, growth: N-lim chemostat, doubling time 6 h
[4] = E. coli NCM3722 delta-lon, growth: N-lim chemostat, doubling time 6 h
[5] = wild type E. coli NCM3722, growth: C-lim chemostat, doubling time 3 h
[6] = wild type E. coli NCM3722, growth: C-lim chemostat, doubling time 6 h
[7] = wild type E. coli NCM3722, growth: C-lim chemostat, doubling time 12 h
[8] = wild type E. coli NCM3722, growth: N-lim chemostat, doubling time 6 h
[9] = wild type E. coli NCM3722, growth: N-lim chemostat, doubling time 12 h
[10] = wild type E. coli NCM3722, growth: P-lim chemostat, doubling time 6 h
[11] = wild type E. coli NCM3722, growth: P-lim chemostat, doubling time 12 h
[12] = E. coli NCM3722 delta-hslV, growth: N-lim chemostat, doubling time 6 h

MPKSVIIPAGSSAPLAPFVPGTLADGVVYVSGTLAFDQHNNVLFADDPKAQTRHVLETIRKVIETAGGTMADVTFNSIFITDWKNYAAINEIYAEFFPGDKPARFCIQCGLVKPDALVEIATIAHIAK [P0AFQ5]
total protein half-life in vivo [1]: 3.86 h

MKPFLRWCFVATALTLAGCSNTSWRKSEVLAVPLQPTLQQEVILARMEQILASRALTDDERAQLLYERGVLYDSLGLRALARNDFSQALAIRPDMPEVFNYLGIYLTQAGNFDAAYEAFDSVLELDPTYNYAHLNRGIALYYGGRDKLAQDDLLAFYQDDPNDPFRSLWLYLAEQKLDEKQAKEVLKQHFEKSDKEQWGWNIVEFYLGNISEQTLMERLKADATDNTSLAEHLSETNFYLGKYYLSLGDLDSATALFKLAVANNVHNFVEHRYALLELSLLGQDQDDLAESDQQ [P0AFB1]
total protein half-life in vivo [2]: 6.43 ± 0.4 h
total protein half-life in vivo [3]: 6.3 ± 0.2 h
total protein half-life in vivo [4]: 6.621 ± 0.019 h
total protein half-life in vivo [1]: 6.66 ± 1.2 h
total protein half-life in vivo [5]: 3.15 ± 0.24 h
total protein half-life in vivo [6]: 5.9 ± 0.35 h
total protein half-life in vivo [7]: 11.3 ± 0.48 h
total protein half-life in vivo [8]: 6.12 ± 0.22 h
total protein half-life in vivo [9]: 13.5 ± 2 h
total protein half-life in vivo [10]: 7.56 ± 0.19 h
total protein half-life in vivo [11]: 13.1 ± 0.29 h

MISVFDIFKIGIGPSSSHTVGPMKAGKQFTDDLIARNLLKDVTRVVVDVYGSLSLTGKGHHTDIAIIMGLAGNLPDTVDIDSIPSFIQDVNTHGRLMLANGQHEVEFPVDQCMNFHADNLSLHENGMRITALAGDKVVYSQTYYSIGGGFIVDEEHFGQQDSAPVEVPYPYSSAADLQKHCQETGLSLSGLMMKNELALHSKEELEQHLANVWEVMRGGIERGISTEGVLPGKLRVPRRAAALRRMLVSQDKTTTDPMAVVDWINMFALAVNEENAAGGRVVTAPTNGACGIIPAVLAYYDKFIREVNANSLARYLLVASAIGSLYKMNASISGAEVGCQGEVGVACSMAAAGLAELLGASPAQVCIAAEIAMEHNLGLTCDPVAGQVQVPCIERNAIAAVKAVNAARMALRRTSEPRVCLDKVIETMYETGKDMNAKYRETSRGGLAMKIVACD
total protein half-life in vivo [2]: 3.9 h

MRSKYIVIEGLEGAGKTTARNVVVETLEQLGIRDMVFTREPGGTQLAEKLRSLVLDIKSVGDEVITDKAEVLMFYAARVQLVETVIKPALANGTWVIGDRHDLSTQAYQGGGRGIDQHMLATLRDAVLGDFRPDLTLYLDVTPEVGLKRARARGELDRIEQESFDFFNRTRARYLELAAQDKSIHTIDATQPLEAVMDAIRTTVTHWVKELDA [P0A720]
total protein half-life in vivo [2]: 4.32 ± 0.51 h
total protein half-life in vivo [3]: 4 ± 0.41 h
total protein half-life in vivo [12]: 4.4 ± 0.41 h
total protein half-life in vivo [4]: 4.52 ± 0.32 h
total protein half-life in vivo [1]: 4.25 ± 0.13 h
total protein half-life in vivo [5]: 3.059 ± 0.011 h
total protein half-life in vivo [6]: 5.11 ± 0.073 h
total protein half-life in vivo [7]: 9.9341 ± 0.0012 h
total protein half-life in vivo [8]: 3.93 ± 0.26 h
total protein half-life in vivo [9]: 6.63 ± 0.1 h
total protein half-life in vivo [10]: 5.59 ± 0.5 h
total protein half-life in vivo [11]: 11.3 ± 0.12 h

MCTTCGCGEGNLYIEGDEHNPHSAFRSAPFAPAARPKMKITGIKAPEFTPSQTEEGDLHYGHGEAGTHAPGMSQRRMLEVEIDVLDKNNRLAERNRARFAARKQLVLNLVSSPGSGKTTLLTETLMRLKDSVPCAVIEGDQQTVNDAARIRATGTPAIQVNTGKGCHLDAQMIADAAPRLPLDDNGILFIENVGNLVCPASFDLGEKHKVAVLSVTEGEDKPLKYPHMFAAASLMLLNKVDLLPYLNFDVEKCIACAREVNPEIEIILISATSGEGMDQWLNWLETQRCA [P0AAN3]
total protein half-life in vivo [2]: 4.03 ± 0.57 h
total protein half-life in vivo [3]: 3.15 h
total protein half-life in vivo [12]: 2.72 ± 0.035 h
total protein half-life in vivo [4]: 3.48 ± 0.13 h
total protein half-life in vivo [1]: 3.079 ± 0.0096 h
total protein half-life in vivo [5]: 2.29 ± 0.11 h
total protein half-life in vivo [6]: 4.19 ± 0.074 h
total protein half-life in vivo [7]: 6.66 ± 0.1 h
total protein half-life in vivo [8]: 3.14 ± 0.63 h
total protein half-life in vivo [9]: 3.83 ± 0.63 h
total protein half-life in vivo [10]: 3.69 ± 0.052 h
total protein half-life in vivo [11]: 7.22 ± 0.56 h

MVTSCTGHVLDNQRATTRGVFSSGSHLVTLHFQPHPFFSCVTDAVNGARSRFSAFYPKANYGLQGSQPSDVRAHNRAANGACDEYKQLKVLSMGRQKAVIKARREAKRVLRRDSRSHKQREEESVTSLVQMGGVEAIGMARDSRDTSPILARNEAQLHYLKAIESKQLIFATGEAGCGKTWISAAKAAEALIHKDVDRIIVTRPVLQADEDLGFLPGDIAEKFAPYFRPVYDVLVRRLGASFMQYCLRPEIGKVEIAPFAYMRGRTFENAVVILDEAQNVTAAQMKMFLTRLGENVTVIVNGDITQCDLPRGVCSGLSDALERFEEDEMVGIVRFGKEDCVRSALCQRTLHAYS [P0A9K1]
total protein half-life in vivo [2]: 5.82 ± 0.65 h
total protein half-life in vivo [3]: 1.96 ± 0.059 h
total protein half-life in vivo [12]: 0.55 ± 0.47 h
total protein half-life in vivo [4]: 0.666 ± 0.43 h
total protein half-life in vivo [1]: 0.308 ± 0.011 h
total protein half-life in vivo [5]: 0.166 ± 0.058 h
total protein half-life in vivo [6]: 0.347 ± 0.25 h
total protein half-life in vivo [7]: 0.864 h
total protein half-life in vivo [8]: 0.735 ± 0.45 h
total protein half-life in vivo [9]: 0.571 h
total protein half-life in vivo [10]: 0.355 h
total protein half-life in vivo [11]: 1.23 ± 0.8 h

MNMKLKTLFAAAFAVVGFCSTASAVTYPLPTDGSRLVGQNQVITIPEGNTQPLEYFAAEYQMGLSNMMEANPGVDTFLPKGGTVLNIPQQLILPDTVHEGIVINSAEMRLYYYPKGTNTVIVLPIGIGQLGKDTPINWTTKVERKKAGPTWTPTAKMHAEYRAAGEPLPAVVPAGPDNPMGLYALYIGRLYAIHGTNANFGIGLRVSHGCVRLRNEDIKFLFEKVPVGTRVQFIDEPVKATTEPDGSRYIEVHNPLSTTEAQFEGQEIVPITLTKSVQTVTGQPDVDQVVLDEAIKNRSGMPVRLN [P0AAX8]
total protein half-life in vivo [2]: 6.81 ± 1.6 h
total protein half-life in vivo [3]: 5.74 ± 0.27 h
total protein half-life in vivo [12]: 6.22 ± 0.09 h
total protein half-life in vivo [4]: 6.15 ± 0.32 h
total protein half-life in vivo [1]: 6.37 ± 0.75 h
total protein half-life in vivo [5]: 2.9 ± 0.083 h
total protein half-life in vivo [6]: 5.76 ± 0.11 h
total protein half-life in vivo [7]: 11.6 ± 0.4 h
total protein half-life in vivo [8]: 5.98 ± 0.64 h
total protein half-life in vivo [9]: 13.7 ± 1.3 h
total protein half-life in vivo [10]: 5.606 ± 0.037 h
total protein half-life in vivo [11]: 12.3 ± 0.94 h
